Measured values reported in PMC7824274, “Separation of Coiled-Coil Structures in Lamin A/C Is Required for the Elongation of the Filament” (Cells, 2020).
Residue numbers refer to the chain shown, from its start.

Legend:
[1] = biological target: T1, His-tagged lamin A/C 250-400 fragment, L362C (human, UniProt P02545 250-400, L362C); test: pull-down; His-tagged lamin 250-400 fragments on Ni-NTA resin with the lamin 1-125 fragment; reducing condition; SDS-PAGE; conditions: both partners purified
T1 construct: lamin A/C, human, residues 250-400 with L362C; also called His-lamin 250-400 L362C; source: E. coli BL21 (DE3), purified (cobalt-Talon, HiTrap Q, SEC); not shown: His-tag, N-terminal, kept
T1 sequence (looked up): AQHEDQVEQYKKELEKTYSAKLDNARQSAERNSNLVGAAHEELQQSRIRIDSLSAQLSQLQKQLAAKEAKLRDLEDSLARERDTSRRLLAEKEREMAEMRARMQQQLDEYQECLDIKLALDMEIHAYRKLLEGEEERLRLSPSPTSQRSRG

[2] = biological target: T2, His-tagged lamin A/C 250-400 fragment, wild type (human, UniProt P02545 250-400); test: pull-down; His-tagged lamin 250-400 fragments on Ni-NTA resin with the lamin 1-125 fragment; nonreducing (oxidized) condition; SDS-PAGE; conditions: both partners purified
T2 construct: lamin A/C, human, residues 250-400 (C-terminal part of coil 2); pProEx-HTa vector: a TEV protease cleavage site stands between the His-tag and the lamin residues; also called His-lamin 250-400 WT; source: E. coli BL21 (DE3), purified (cobalt-Talon, HiTrap Q, SEC); not shown: His-tag, N-terminal, kept
T2 sequence (looked up): T1 sequence (looked up) with C113L

B1: lamin A/C 1-125 fragment, wild type, prey of Figure 6b (domain or fragment, human, UniProt P02545 1-125, looked up)
chain: METPSQRRATRSGAQASSTPLSPTRITRLQEKEDLQELNDRLAVYIDRVRSLETENAGLRLRITESEEVVSREVSGIKAAYEAELGDARKTLDSVAKERARLQLELSKVREEFKELKARNTKKEG
notes: the pull-down methods say that preys were His-tag cleaved lamin proteins; the purification paragraph names TEV cleavage only for lamin 250-400; also called coil 1a fragment; source: E. coli BL21 (DE3), purified (cobalt-Talon, HiTrap Q, SEC); not shown: His-tag, N-terminal, cleaved
binding result [1]: binds | binding result [2]: binds
